B1: VH:VL chains; a variant is named by its letters at X, in order (parent)
chain 1: QVQLVQSGAEVKKPGASVKVSCKASGYTFTDYXMHWVRQAPGQGLEWMGXVNPNXXXTTYNQKFEGRVTMTTDTSTSTAYMELRSLRSDDTAVYYCARXNXLDXWGQGTTVTVSS
chain 2: DIQMTQSPSSLSASVGDRVTITCSVSSSVSSIYLHWYQQKPGKAPKLLIYSTSNLASGVPSRFSGSGSGTDFTLTISSLQPEDFATYYCQVYSGYPLTFGGGTKVEIK

Variants of: B1
Experiment: yeast display scFab, FACS + sequencing
In short: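 Heavy-chain CDR mutant scFab yeast surface library, FACS-sorted after labelling with biotinylated ovalbumin (260 μg/mL in PBSB, 3 h, room temperature) or soluble membrane proteins (130 μg/mL, 20 min on ice), plus anti-Myc. Gates collected the top 25% and bottom 10% of binders, and samples from two replicates were deep sequenced. Non-specific binding call: a sequence was positive if found in ≥3 of 4 positive samples (membrane protein and ovalbumin pooled) and no negatives, and negative by the converse rule.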
For YKGRGVVV, the non-specific binding call was “binds”. With YKRGAAGD the non-specific binding call was “binds”. For SKKRGSGA, the non-specific binding call was “binds”. In the case of VKRGSSVD, the non-specific binding call is reported as “binds”. With SKKRGSWD the non-specific binding call was “binds”. For VKGRSDGV, the non-specific binding call was “no binding”. For FKGRGSGY, the non-specific binding call was “binds”. In the case of FKGRGSGV, the non-specific binding call is reported as “binds”. For VKRGSSGA, the non-specific binding call was “binds”. With VKRGSSGD the non-specific binding call was “binds”. For YKRGDAVF, the non-specific binding call was “no binding”. In the case of FKRGSSAA, the non-specific binding call is reported as “binds”. For DKREADGA, the non-specific binding call was “no binding”. With YKRGGAAA the non-specific binding call was “binds”. In the case of YKRGGAVV, the non-specific binding call is reported as “binds”. In the case of YKRGSFGA, the non-specific binding call is reported as “binds”. In the case of SKGRSDGV, the non-specific binding call is reported as “no binding”. With SKGRSDGA the non-specific binding call was “no binding”. For FKKGSAVV, the non-specific binding call was “binds”. In the case of FKKGSAVA, the non-specific binding call is reported as “binds”. In the case of FKGRGSAA, the non-specific binding call is reported as “binds”. For FKGRGSAD, the non-specific binding call was “binds”. In the case of YKRGASLA, the non-specific binding call is reported as “binds”. With SKGRSDVF the non-specific binding call was “no binding”. For SKGRSDVS, the non-specific binding call was “no binding”. With SKGRSDVV the non-specific binding call was “no binding”. In the case of SKGRSDVY, the non-specific binding call is reported as “no binding”. In the case of AKRGAFAD, the non-specific binding call is reported as “binds”. In the case of YKGRGFWA, the non-specific binding call is reported as “binds”. For YKGRGAVS, the non-specific binding call was “binds”. In the case of YKRGSSSD, the non-specific binding call is reported as “binds”. With YKRGSSSY the non-specific binding call was “binds”. With YKKESDSY the non-specific binding call was “no binding”. For FKGRGFGV, the non-specific binding call was “binds”. For VKRGSAAV, the non-specific binding call was “binds”. In the case of VKRGSAAA, the non-specific binding call is reported as “binds”. For FKGRGDGS, the non-specific binding call was “binds”. For YKGTDAWY, the non-specific binding call was “no binding”. For YKKGSSLF, the non-specific binding call was “binds”. With DKREADVA the non-specific binding call was “no binding”. In the case of SKRKSSGA, the non-specific binding call is reported as “binds”. In the case of SKGRSDAV, the non-specific binding call is reported as “no binding”. In the case of YKRGSAWV, the non-specific binding call is reported as “binds”. With YKRGSAWD the non-specific binding call was “binds”. With SKGRGSAA the non-specific binding call was “binds”. In the case of VKGRGAWA, the non-specific binding call is reported as “binds”. For VKGRGAWY, the non-specific binding call was “binds”. For YKRKSASD, the non-specific binding call was “binds”. With YKREGSAV the non-specific binding call was “no binding”. For VKGRGDSF, the non-specific binding call was “no binding”. In the case of YKGRSAVY, the non-specific binding call is reported as “binds”. For FKGRSASY, the non-specific binding call was “binds”. With DKKKDVVF the non-specific binding call was “binds”. With SKGRSSWS the non-specific binding call was “binds”. With YKRGDASS the non-specific binding call was “no binding”. For AKKRGAWS, the non-specific binding call was “binds”. In the case of VKGRSDWV, the non-specific binding call is reported as “no binding”. In the case of YKKGGSGV, the non-specific binding call is reported as “binds”. With VKKRGAWS the non-specific binding call was “binds”. For YKGRGFAY, the non-specific binding call was “binds”. For VKGRGSLF, the non-specific binding call was “binds”. For SKRKSSSD, the non-specific binding call was “binds”. For SKKRGAAA, the non-specific binding call was “binds”. For VKRATVLA, the non-specific binding call was “binds”. For VKRGSFVD, the non-specific binding call was “binds”. For VKRRDSGD, the non-specific binding call was “binds”. With YKRGGSGD the non-specific binding call was “binds”. In the case of YKRGSAVD, the non-specific binding call is reported as “binds”. With FKKGSAAV the non-specific binding call was “binds”. For VKGRGVGA, the non-specific binding call was “binds”. For VKGRGVGY, the non-specific binding call was “binds”. With YKRGSAAA the non-specific binding call was “binds”. With VKGRGFAA the non-specific binding call was “binds”. In the case of SKKTGDLY, the non-specific binding call is reported as “no binding”. With DKGRSAGD the non-specific binding call was “no binding”. In the case of AKGTASGD, the non-specific binding call is reported as “binds”. For YKGRGYSY, the non-specific binding call was “binds”. With YKRAAYGD the non-specific binding call was “binds”. In the case of FKGRGSSS, the non-specific binding call is reported as “binds”. In the case of YKGRGFGD, the non-specific binding call is reported as “binds”. With SKGRGAVY the non-specific binding call was “binds”. In the case of VKGRGDAA, the non-specific binding call is reported as “no binding”. For YKRGDSSS, the non-specific binding call was “no binding”. In the case of SKKRGASA, the non-specific binding call is reported as “binds”. With VKGRGVVD the non-specific binding call was “binds”. For YKRGDAWA, the non-specific binding call was “no binding”. In the case of YKRGDAWD, the non-specific binding call is reported as “no binding”. For YKRRDFGV, the non-specific binding call was “binds”. For VKGRGASV, the non-specific binding call was “binds”. For VKGRSDSA, the non-specific binding call was “no binding”. For SKKEDSAD, the non-specific binding call was “no binding”. With DKKEDSAD the non-specific binding call was “no binding”. With SKKTGSVD the non-specific binding call was “no binding”. With VKGTDAWY the non-specific binding call was “no binding”. For FKKGSFGA, the non-specific binding call was “binds”. With VKGRGSWS the non-specific binding call was “binds”. For VKGRGSWA, the non-specific binding call was “binds”. For VKGRGSWY, the non-specific binding call was “binds”. In the case of VKGRGSVF, the non-specific binding call is reported as “no binding”. In the case of YKRGSSVD, the non-specific binding call is reported as “binds”. For YKRGSSVS, the non-specific binding call was “binds”. With YKRGSSVV the non-specific binding call was “binds”. With VKKEDAGD the non-specific binding call was “no binding”. With FKGRGAVY the non-specific binding call was “binds”. For FKGRGAVD, the non-specific binding call was “binds”. With YKKRGAGV the non-specific binding call was “binds”. With VKKTGSGA the non-specific binding call was “binds”. In the case of YKGRSAAA, the non-specific binding call is reported as “binds”. For FKRRDSVY, the non-specific binding call was “binds”. For VKGTGVAY, the non-specific binding call was “binds”. For YKGRGASA, the non-specific binding call was “binds”. With YKGRGASS the non-specific binding call was “binds”. With YKGRGASD the non-specific binding call was “binds”. With YKGRGASV the non-specific binding call was “binds”. In the case of VKGRSDVY, the non-specific binding call is reported as “no binding”. With VKGRGSGS the non-specific binding call was “binds”. With VKRGDDVA the non-specific binding call was “no binding”. With VKRGDDVV the non-specific binding call was “no binding”. With VKGRGSAY the non-specific binding call was “binds”. In the case of VKGRGSAD, the non-specific binding call is reported as “binds”. With VKGRGSAA the non-specific binding call was “binds”. For SKGTDDWV, the non-specific binding call was “no binding”. With DKRKGVSD chain 1 S88F the non-specific binding call was “binds”. With YKRGDDGD the non-specific binding call was “no binding”. In the case of FKGRGSLS, the non-specific binding call is reported as “binds”.

Source: the emibetuzumab library of Makowski et al. (2022)
